Patent US20200282010A1, “IMMUNOGENIC COMPOSITIONS AND USES THEREFOR” (Epiaxis Therapeutics Pty Ltd, priority 2017, published 2020)

How the values were obtained:
PKC-θ (T538p) = molecular target: T1, PKC-θ (T538p) (Homo sapiens, UniProt Q04759); assay: Nuclear localization of PKC-θ (Fn/c, immunofluorescence) in cells treated with peptide inhibitor; type: cell-based; settings: MCF7 breast cancer cell line; FIG. 1D
T1 construct: endogenous in cells; host or cells: MCF7
Description: (§1) FIG. 1 is a graphical, schematic and photographic representation showing that PKC-θ can be targeted for therapeutic intervention. A) Depicts the strength of binding of recombinant purified His6-PKC-θ to increasing concentrations of different subunits and subunit combinations (α2, α2β1, and β1) of the importin α/β heterodimer nuclear transport receptor using an AlphaScreen® binding assay as described in Wagstaff et al. (2011. Journal of Biomolecular Screening 16 (2):192-200). B-C) Depicts protein structure of PKC-θ indicating binding locations for the PKC-θ peptide inhibitor, PKCθi (RKEIDPPFRPKVK), including the nuclear localization sequence (NLS) of PKC-θ. D) The specificity of PKCθi was examined on cells treated with this peptide inhibitor. Cells were screened with primary antibodies to PKC-θ (T538p), PKC-β2, PKC-β1, PKC-α, PKC-ε and PKC-γ. The nuclear to cytoplasmic fluorescence ratio (Fn/c) using the equation: Fn/c=(Fn−Fb)/(Fc−Fb), where Fn is nuclear fluorescence, Fc is cytoplasmic fluorescence, and Fb is background fluorescence was used to determine the impact on nuclear translocation/localization. […] EC^50 of inhibitors calculated using GraphPad PRISM software. F) The PKC-θ kinase activity was measured using the PKC kinase activity kit from ENZO life sciences and recombinant PKC-θ; C27 is an inhibitor of PKC-θ kinase activity, which is disclosed in Jimenez et al. (2013. […]

PKC-α = molecular target: T2, PKC-α (Homo sapiens, UniProt P17252); assay: Nuclear localization of PKC-α (Fn/c, immunofluorescence), specificity; type: cell-based; settings: MCF7 breast cancer cell line; FIG. 1D
T2 construct: endogenous in cells; host or cells: MCF7
Description: as §1

[1] = tested on: CD8^+ T-cells isolated from melanoma patient's bloods; assay: Immunofluorescence of nuclear PKC-θ and ZEB1 in patient CD8+ T-cells; type: cell-based, human; settings: all patient samples; vehicle or PMA/CI; inhibitor 8 μm; FIG. 3
Protocol: FIG. 3 is a photographic representation depicting a PKC-θ resistance signature in CD8^+ T-cells. A-B) CD8s were isolated from melanoma patient liquid biopsies (CR=complete response, SD=Stable Disease, PD=progression of disease) and were stimulated with PMA/CI and pre-clinically screened with either vehicle control or PKCθi nuclear peptide inhibitor. Samples were fixed and immunofluorescence microscopy was performed on these cells with primary antibodies for ZEB1, PKC-θ, and CD8. Representative images for each dataset are shown. Graph represents the TNFI for PKC-Theta and TNFI for ZEB1 measured using ImageJ to select the nucleus minus background (n=>20 cells/sample). Plot profiles for each cohort for ZEB1 and PKC-θ are also depicted (RED=ZEB1, Green=PKC-θ) with the PCC indicated. Graphs depicting the % inhibition or induction based on protein expression where also plotted for each protein target relative to untreated sample. C-D) CD8s were isolated from melanoma patient liquid biopsies (CR=complete response, PR=partial response, PD=progression of disease) and were stimulated with PMA/CI and pre-clinically screened with either vehicle control or our PKCθi nuclear peptide inhibitor. […] Graph represents the TNFI for TNF-α and TNFI for IFN-γ measured using ImageJ to select the nucleus minus background (n=>20 cells/sample). […]

T1 sequence (Q04759 whole entry): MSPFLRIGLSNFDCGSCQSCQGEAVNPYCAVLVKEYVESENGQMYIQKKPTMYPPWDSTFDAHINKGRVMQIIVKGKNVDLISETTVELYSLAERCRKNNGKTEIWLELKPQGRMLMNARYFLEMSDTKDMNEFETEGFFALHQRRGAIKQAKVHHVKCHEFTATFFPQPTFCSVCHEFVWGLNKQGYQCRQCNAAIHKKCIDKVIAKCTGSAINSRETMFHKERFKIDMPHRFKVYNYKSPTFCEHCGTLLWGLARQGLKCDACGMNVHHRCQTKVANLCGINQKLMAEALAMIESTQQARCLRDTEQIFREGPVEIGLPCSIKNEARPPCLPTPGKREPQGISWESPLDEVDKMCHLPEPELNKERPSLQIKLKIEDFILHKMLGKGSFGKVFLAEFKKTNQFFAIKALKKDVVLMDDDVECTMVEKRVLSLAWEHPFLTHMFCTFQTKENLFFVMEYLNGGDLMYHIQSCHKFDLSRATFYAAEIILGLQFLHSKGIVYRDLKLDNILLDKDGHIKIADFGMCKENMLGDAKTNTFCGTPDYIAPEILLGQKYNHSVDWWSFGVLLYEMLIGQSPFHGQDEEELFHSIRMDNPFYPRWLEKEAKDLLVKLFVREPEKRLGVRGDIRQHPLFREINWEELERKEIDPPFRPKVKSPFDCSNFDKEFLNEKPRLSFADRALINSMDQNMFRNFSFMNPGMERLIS

Sequence: RKEIDPPFRPKVK [PKCθi]
- nuclear localization of PKC-θ (PKC-θ (T538p)): markedly inhibit
- nuclear localization of PKC-α (PKC-α): no effect
- expression of ZEB1 [1]: strikingly abrogated
- expression of nuclear PKC-θ [1]: strikingly abrogated
